For test [1], the target named is CXCR4 (Fusin), human (human) (UniProt P61073). Description: cell-based or functional assay.
Test [2] has the same target. Description: flow cytometry, H9 cells.
For test [3] the target is unchanged. Description: flow cytometry, MT-2 cells.
The target is the same in test [4]. Description: flow cytometry, C8166 cells.
Test [5] shares this target. Description: flow cytometry, MOLT-4 cells.
Test [6] shares this target. The experiment in a line: flow cytometry, RD/CD4 cells.
Test [7] shares this target. The experiment in a line: flow cytometry, Sup T1 cells.
For test [8] the target is unchanged. The experiment in a line: flow cytometry, HeLa/CD4 cells.
Test [9] has the same target. Description: flow cytometry, Daudi/CD4 cells.
The target is the same in test [10]. Description: Scatchard analysis of 125I-12G5 binding; RD cells.
Test [11] has the same target. Description: Scatchard analysis of 125I-12G5 binding; BC7 cells.
Test [12] has the same target. The experiment in a line: FACS, 10 µg/ml 12G5, Sup-T1 cells infected by HIV-2/vcp.
For test [13] the target is unchanged. Description: flow cytometry, PBMC cultured 5 days, average of 10 batches.
Test [14] has the same target. The experiment in a line: flow cytometry, macrophages cultured 5 days, average of 3 batches.
For test [15], the target named is HA-tagged CXCR4 (HA-tagged Fusin) on CHO-K1 cells (influenza; human) (UniProt P61073). The experiment in a line: Scatchard analysis of 125I-12G5 binding; CHO cells expressing HA-tagged Fusin.
The target in test [16] is CXCR4 (Fusin), human (human) (UniProt P61073). Description: Scatchard analysis of 125I-12G5 surface binding at 4 C; RD or BC7 cells (endogenous CXCR4).
Test [17] has as its target HA-tagged CXCR4 (HA-tagged Fusin) on CHO-K1 cells (influenza; human) (UniProt P61073). The experiment in a line: Scatchard analysis of 125I-12G5 surface binding at 4 C; CHO cells expressing HA-tagged Fusin.
In test [18] the target is CXCR4 (Fusin), human (human) (UniProt P61073). Description: FACS, 10 µg/ml 12G5, BC7 cells chronically infected by HIV-2/vcp; loss of surface Fusin or blocking of the epitope not told apart.
For test [19] the target is unchanged. Description: FACS, 10 µg/ml 12G5, Daudi cells chronically infected by HIV-2/vcp; loss of surface Fusin or blocking of the epitope not told apart.
For test [20] the target is unchanged. The experiment in a line: FACS, 10 µg/ml 12G5, Nalm6 cells chronically infected by HIV-2/vcp; loss of surface Fusin or blocking of the epitope not told apart.

Consider MAb 12G5 (antibody), for which the antibody concentration required to inhibit HIV-2/vcp infection of CD4-negative BC7, Nalm6 and Daudi cells (RT activity) in test [1] fell in the range of 5 to 20 µg/mL. The same substance had an antibody concentration that inhibited CP-MAC infection of Sup-T1 cells (RT activity) in [1] of 1 µg/mL. Moreover, the percentage of cells expressing CXCR4 by 12G5 staining in [2] was determined as 51.4%; in test [3], 99%; in test [4], 72%; in test [5] it was 89.5%; in test [6], 93.3%; in test [7], 81.5%. For the same substance, the percentage of cells expressing CXCR4 by 12G5 staining is 35.5% in test [8], 88.4% in test [9], 27.8% in test [13] and 5.2% in test [14]. Besides, the antibody molecules bound per cell (antibody molecules per cell) was 400000 in test [10], 50000 in test [11] and 1e+06 in test [15]. Further, the percent reduction of 12G5 binding on HIV-2/vcp-infected against uninfected cells in test [12] turned out to be 75%; in test [18], 98%; in test [19], 79%; in test [20], 87%. The Kd in test [16] and in test [17] was 1 to 5 nM in each case.

The values above are taken from USRE39057.
